Laboratory results: patent US20140135482A1 (Hoffmann-La Roche, published 2014)
Each block holds one binder with its values, some of them ahead of it.

Tests used:
human c-Met (on cells) = molecular target: T1, human c-Met (on cells) (human, UniProt P08581 25-1390); assay: flow cytometry on A431 cells, dilution series of the antibody, detected with PE-coupled anti-human Fc antibody
T1 construct: Endogenous receptor on human cell lines (A431, A549, HT29, DU145, HUVEC); also called c-Met receptor
Experimental: (§1) A431 were detached and counted. 1.5×10e5 cells were seeded per well of a conical 96-well plate. Cells were spun down (1500 rpm, 4° C., 5 min) and incubated for 30 min on ice in 50 μL of a dilution series of the respective bispecific antibody in PBS with 2% FCS (fetal calf serum). Cells were again spun down and washed once with 200 μL PBS containing 2% FCS followed by a second incubation of 30 min with a phycoerythrin-coupled antibody directed against human Fc which was diluted in PBS containing 2% FCS (Jackson Immunoresearch, 109116098). Cells were spun down washed twice with 200 μL PBS containing 2% FCS, resuspended in BD CellFix solution (BD Biosciences) and incubated for at least 10 min on ice. Mean fluorescence intensity (mfi) of the cells was determined by flow cytometry (FACS Canto, BD). Mfi was determined at least in duplicates of two independent stainings Flow cytometry spectra were further processed using the FlowJo software (TreeStar). Half-maximal binding was determined using XLFit 4.0 (IDBS) and the dose response one site model 205.
(§2) The binding properties of the bispecific antibodies to their respective receptor on the cell surface was analyzed on A431 cancer cells in a flow cytometry based assay. Cells were incubated with the mono- or bispecific primary antibodies and binding of these antibodies to their cognate receptors was detected with a secondary antibody coupled to a fluorophor binding specifically to the Fc of the primary antibody. The mean fluorescence intensity of a dilution series of the primary antibodies was plotted against the concentration of the antibody to obtain a sigmoidal binding curve.

[1] = molecular target: T2, recombinant Her3 ectodomain (ECD) (human, UniProt P21860 20-643); assay: SPR (Biacore T100), antibody captured by anti-Fc gamma antibody, ECD in solution, 25 C
T2 construct: the whole entry for human ErbB-3 is named; also called human HER3 ECD

[2] = molecular target: T3, recombinant c-Met ectodomain (ECD) (human, UniProt P08581 25-932); assay: as above
T3 construct: the whole entry for human c-Met is named; also called c-Met ECD

human ErbB-3 (on cells) [3] = molecular target: T4, human ErbB-3 (on cells) (human, UniProt P21860 20-1342); assay: cell-based or functional assay
human ErbB-3 (on cells) [4] = molecular target: T4, human ErbB-3 (on cells); assay: flow cytometry on A431 cells, dilution series of the antibody, detected with PE-coupled anti-human Fc antibody
Experimental: as §1, §2

human ErbB-3 (on cells) [5] = molecular target: T4, human ErbB-3 (on cells); assay: flow cytometry on A431 cells, dilution series of the bispecific antibody in the presence of Fab 5D5 (its concentration is not given on the sheet), detected with PE-coupled anti-human Fc antibody

B1: <c-Met> Mab 5D5 (antibody, human IgG1, kappa, V domains shown)
VH: EVQLVESGGGLVQPGGSLRLSCAASGYTFTSYWLHWVRQAPGKGLEWVGMIDPSNSDTRFNPNFKDRFTISADTSKNTAYLQMNSLRAEDTAVYYCATYRSYVTPLDYWGQGTLVTVSS
VL: DIQMTQSPSSLSASVGDRVTITCKSSQSLLYTSSQKNYLAWYQQKPGKAPKLLIYWASTRESGVPSRFSGSGSGTDFTLTISSLQPEDFATYYCQQYYAYPWTFGQGTKVEIKR
notes: Monospecific, bivalent c-Met parent antibody (humanized); also called c-Met 5D5; bivalent 5D5
EC50 (read off the curve) (human c-Met (on cells)): ~0.06 µg/mL

B4: <ErbB3> Mab 205 (chimeric) (antibody, V domains shown)
VH: QGQMQQSGAELVKPGASVKLSCKTSGFTFRSSYISWLKQKPRQSLEWIAWIYAGTGSPSYNQKFTGKAQLTVDTSSSTAYMQLSSLTSEDSAIYYCARHRDYYSNSLTYWGQGTLVTVSA
VL: DIVMTQSPSSLTVTAGENVTMSCKSSQSLLNSGNQKNYLTWYQQKPGQPPKLLIYWASTRESGVPNRFTGSGSGTDFTLAISSVQAEDLSIYYCQSDYSYPYTFGQGTKLEIK
% ErbB3 receptor on A431 cell surface measured after 2 h (human ErbB-3 (on cells) [3]): 60% | % Internalization of ErbB3 after 2 h on A431 cells (human ErbB-3 (on cells) [3]): 40%

B5: <ErbB3-c-Met> Her3/Met_6C (bispecific antibody, human IgG1, kappa)
heavy 1: not shown
heavy 2: not shown
light: DIQMTQTTSSLSASLGDRVTISCRARQDISNYLNWYQRKPDGTVKLLIYYTSRLHSGVPSRFSGSGSGTDYSLTISNLEQEDIATYFCQQGNTFPWTFGGGTKLEIKRTVAAPSVFIFPPSDEQLKSGTASVVCLLNNFYPREAKVQWKVDNALQSGNSQESVTEQDSKDSTYSLSSTLTLSKADYEKHKVYACEVTHQGLSSPVTKSFNRGEC
% ErbB3 receptor on A431 cell surface measured after 2 h (human ErbB-3 (on cells) [3]): 94% | % Internalization of ErbB3 after 2 h on A431 cells (human ErbB-3 (on cells) [3]): 6%

B7: <ErbB3-c-Met> Her3/Met_SSKH (bispecific antibody, human IgG1, kappa)
heavy 1: not shown
heavy 2: not shown
light: B5 light
% ErbB3 receptor on A431 cell surface measured after 2 h (human ErbB-3 (on cells) [3]): 89% | % Internalization of ErbB3 after 2 h on A431 cells (human ErbB-3 (on cells) [3]): 11%

B8: <ErbB3-c-Met> Her3/Me_scFvSSKH (bispecific antibody, human IgG1, kappa)
heavy 1: not shown
heavy 2: not shown
light: B5 light
EC50 (read off the curve) (human ErbB-3 (on cells) [5]): ~0.06 µg/mL

B9: <ErbB3> HER3 clone 29 (antibody, human IgG1, kappa, V domains shown)
VH: DVQLQESGPGLVKPSQSLSLTCSVTGYSITSAYYWNWIRQFPGNKLEWMGYISYGGSNSYAPSLKNRFSITRDTSKNQFFLKLNSVTTEDTATYYCARESDYAYFDYWGQGTTLTVSS
VL: DIQMTQTTSSLSASLGDRVTISCRARQDISNYLNWYQRKPDGTVKLLIYYTSRLHSGVPSRFSGSGSGTDYSLTISNLEQEDIATYFCQQGNTFPWTFGGGTKLEIKR
notes: Monospecific bivalent parent antibody (chimeric)
EC50 (read off the curve) (human ErbB-3 (on cells) [4]): ~0.03 µg/mL | % ErbB3 receptor on A431 cell surface measured after 2 h (human ErbB-3 (on cells) [3]): 44% | % Internalization of ErbB3 after 2 h on A431 cells (human ErbB-3 (on cells) [3]): 54%

Now from value to binder:

Kd [1]: 1.8 nM | Kd [2]: 0.8 nM
B2: MH_TvAB21 (bispecific antibody)
chain 1: not shown
chain 2: not shown
chain 3: DIVMTQSPSSLTVTAGENVTMSCKSSQSLLNSGNQKNYLTWYQQKPGQPPKLLIYWASTRESGVPNRFTGSGSGTDFTLAISSVQAEDLSIYYCQSDYSYPYTFGQGTKLEIKRTVAAPSVFIFPPSDEQLKSGTASVVCLLNNFYPREAKVQWKVDNALQSGNSQESVTEQDSKDSTYSLSSTLTLSKADYEKHKVYACEVTHQGLSSPVTKSFNRGEC

Kd [1]: 2.1 nM | Kd [2]: 0.9 nM
B3: MH_TvAB22 (bispecific antibody)
chain 1: not shown
chain 2: not shown
chain 3: B2 chain 3

binding result (human ErbB-3 (on cells) [4]): binds
B6: <ErbB3-c-Met> Her3/Met_KHSS (bispecific antibody, human IgG1, kappa)
heavy 1: not shown
heavy 2: not shown
light: B5 light
notes: also called Her3/c-Met KHSS
